In the supplement of paper PMC10126150:
± gives the standard deviation of the averaged measurements.

Test system: ATP
Assay: switch fluorescence ratio, 500 uM ATP over buffer (Cy3 cluster intensity, sum of 5 cycles each) (fold (ratio)); higher = stronger signal-on switching upon ATP binding; sequences stand for … in TCGTCGGCAGCGTCAGATGTGTATAAGAGACAGTTTTTTTTTTTTTTTTTTTTTTTTT…TC
Conditions: aptamer strand: ATP DNA aptamer (quencher-CACCTGGGGGAGTATTGCGGAGGAAGG + anchor), 100 nM annealed; ATP concentration: 500 uM
In short: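 The fluorescence ratio divides summed target-cycle Cy3 intensity by summed buffer-cycle Cy3 intensity for each cluster and is averaged per switch-domain sequence. Cy3-labelled switching-strand clusters on a modified Illumina MiSeq flow-cell were annealed to 100 nM quencher-labelled ATP aptamer, then imaged in selection buffer and again after 15 min with 500 uM ATP at 22 °C. Five such cycles were run, with NaOH stripping and re-annealing between them, and clusters outside 100-1000 RFU were excluded.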
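Also: ATP exposure 15 min at 22 °C before imaging.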

Row | Sequence | switch fluorescence ratio
1 | CTGGGTGGGC | 0.993 ± 0.018
2 | GGTGCGCGGA | 1.034 ± 0.0064
3 | TTCTCGTTCT | 0.996 ± 0.045
4 | GACGGATTTA | 0.988 ± 0.035
5 | GAAGGCACTA | 1.03 ± 0.045
6 | TCATGGGTTT | 0.997 ± 0.04
7 | ATAGGGAATT | 1 ± 0.024
8 | AAAGTATATA | 1.02 ± 0.04
9 | TGGGTTGATG | 0.959 ± 0.023
10 | GGGGTTTTGA | 0.97725 ± 0.00091
11 | AGGGCAAGAG | 1.38 ± 0.054
12 | TTTACGTCCA | 1.1 ± 0.047
13 | GCGTTCCTTA | 0.971 ± 0.024
14 | GTGGGGAGCG | 0.994 ± 0.029
15 | CCCCGGGGTT | 1.88 ± 1.2
16 | GACGAATGGG | 0.985 ± 0.015
17 | AAATTTGCCA | 0.9566 ± 0.0066
18 | ATAGGGGGAG | 1 ± 0.033
19 | CGGGTGGGCA | 0.945 ± 0.019
20 | GAGGTTACGC | 0.988 ± 0.053
21 | AGCATAAGCA | 1.15 ± 0.27
22 | TATATTTCGT | 1.03 ± 0.07
23 | AATGAAGGCA | 1.005 ± 0.0049
24 | CTTACGGGGT | 1.1 ± 0.093
25 | ATTAAAAATC | 0.968 ± 0.036

Row | Sequence | switch fluorescence ratio
26 | AAGATAGGGA | 0.9792 ± 0.0035
27 | TGTCAGGGTT | 1 ± 0.014
28 | TGAGAAGGGA | 1.02 ± 0.22
29 | ATCGGGGCGG | 0.993 ± 0.031
30 | GGGTGAGGGA | 1.01 ± 0.035
31 | GCGTTTGCAT | 1.03 ± 0.034
32 | GGGTATCACG | 1 ± 0.017
33 | TTGAAATAAT | 1.1 ± 0.14
34 | TTGGGAATCC | 1.03 ± 0.12
35 | GGGAATTAAG | 0.989 ± 0.032
36 | ATAACGTTGA | 0.99 ± 0.017
37 | TAAGGTTTTG | 1.01 ± 0.022
38 | AACGTATGGG | 1.03 ± 0.039
39 | TTTTGGAGAA | 1.02 ± 0.037
40 | TTTTCAAGTT | 1.21 ± 0.38
41 | TTGTGATTTT | 1.02 ± 0.048
42 | CTTTGACGGG | 0.989 ± 0.013
43 | GTTGGTATTG | 1 ± 0.021
44 | GTTGGGTCCC | 0.9857 ± 0.0069
45 | TTTCGTGTGG | 1.01 ± 0.086
46 | AACAGGGAAG | 1.02 ± 0.012
47 | TATGGTTTAC | 1 ± 0.017
48 | TTTGAATTAT | 0.975 ± 0.021
49 | CAGTTGGAGC | 0.981 ± 0.06
50 | TTGTTTTCGC | 1.04 ± 0.046

Row | Sequence | switch fluorescence ratio
51 | CAGAGTTTCT | 1.02 ± 0.021
52 | CAATGGGTAT | 0.978 ± 0.014
53 | AGTTTTGGTA | 1.02 ± 0.064
54 | ATTAAGTTTC | 0.9675 ± 0.0012
55 | CCAATCAGGT | 1.08 ± 0.097
56 | GCGTTATAAG | 1.01 ± 0.049
57 | AGAGGAAGGT | 1.03 ± 0.046
58 | CAAATAACGG | 1 ± 0.023
59 | TGTGTATGCT | 0.9868 ± 0.0078
60 | GTTATTTAGA | 1.03 ± 0.043
61 | TTTTTCGGCA | 1.31 ± 0.43
62 | GAAAGGCGGG | 0.985 ± 0.0041
63 | CGATGGACGG | 1.01 ± 0.033
64 | GGGGCCGTGC | 1.01 ± 0.038
65 | TGAGATTTTG | 0.983 ± 0.045
66 | AAATACTTGC | 1.14 ± 0.074
67 | TAGGGATTGG | 1.01 ± 0.039
68 | TTTAGCAGAG | 1.16 ± 0.28
69 | GTATGAAAAG | 0.9736 ± 0.0061
70 | GTTTTAGTCA | 0.9989 ± 0.001
71 | AAAAGGTTAA | 0.968 ± 0.019
72 | GCGTTTTTGG | 0.998 ± 0.029
73 | TAGGGAAAAT | 0.9833 ± 0.0029
74 | TTGTTTGTTT | 0.997 ± 0.035
75 | AGGAGGCATG | 0.986 ± 0.043

Row | Sequence | switch fluorescence ratio
76 | TGGCAGGTTG | 1.01 ± 0.013
77 | TTAAGCGAGC | 0.9657 ± 0.0024
78 | ATGCTGGTAT | 0.981 ± 0.024
79 | GTTTTATCCT | 1.05 ± 0.011
80 | ATAGTGTGGT | 0.986 ± 0.083
81 | GCGTATTTTT | 1.01 ± 0.029
82 | ATCTCGCAGG | 1.08 ± 0.031
83 | CGGGTTCAGT | 0.974 ± 0.014
84 | TTGTTGGCCG | 0.9637 ± 0.0078
85 | AGGGTTTGTG | 1.11 ± 0.037
86 | CCCTTGGTTA | 1.03 ± 0.032
87 | AAGAAGGGAG | 0.982 ± 0.01
88 | CAGGGCGACA | 0.9924 ± 0.0012
89 | TCTACTAT | 1.06 ± 0.031
90 | TCATAGTTGG | 0.979 ± 0.025
91 | TCAATTAACT | 1.03 ± 0.013
92 | CAGGATGTAC | 1.05 ± 0.063
93 | TCATAGTTTT | 1.01 ± 0.042
94 | GGGGACCTTA | 0.993 ± 0.028
95 | CGCTGAGTGC | 1.08 ± 0.034
96 | ATACGTTGG | 0.9748 ± 0.0046
97 | ATGTAGGGGC | 1.03 ± 0.046
98 | ATGGTGAATT | 1.016 ± 0.0044
99 | TTGCTACTGT | 0.983 ± 0.018
100 | TATCAAATTG | 1.02 ± 0.025

Row | Sequence | switch fluorescence ratio
101 | TTTAAAGA | 0.991 ± 0.01
102 | GGTGCCGCGG | 1.01 ± 0.023
103 | GGGTTAGGGT | 0.991 ± 0.049
104 | TTTTTTAAAG | 0.99843 ± 0.00078
105 | TACCAGGGTA | 1.05 ± 0.047
106 | AGGGCCGGCG | 1 ± 0.031
107 | TTGTGAATAT | 1 ± 0.044
108 | TTGAGAGGAG | 0.98 ± 0.02
109 | TGTTTGATTT | 0.975 ± 0.019
110 | CTTCATCTTT | 0.996 ± 0.018
111 | CCTATGCAGT | 5.33 ± 0.3
112 | TTTCGTATCG | 1.01 ± 0.021
113 | AGCAACCCCT | 1.81 ± 0.022
114 | CCTTTTGCGC | 1.31 ± 0.012
115 | CGGTAACCGG | 0.979 ± 0.0098
116 | GTTGTGTTTT | 1.01 ± 0.026
117 | TTGGAAGGGA | 1 ± 0.015
118 | CTTTCGAGAG | 1 ± 0.025
119 | TGGACGTCGT | 0.987 ± 0.019
120 | GGGGTAGCGT | 0.99 ± 0.03
121 | AGTTACGGTG | 1 ± 0.025
122 | GGTTTGGTCA | 1 ± 0.0055
123 | TTTTAACGAA | 1.01 ± 0.013
124 | GCGGGTTACT | 1.053 ± 0.0028
125 | GAAGCATTTT | 1.07 ± 0.045

Row | Sequence | switch fluorescence ratio
126 | ATGTTAGTGG | 1.01 ± 0.066
127 | AATTGTGATG | 1.01 ± 0.02
128 | ATACACATCC | 1.06 ± 0.061
129 | ACGACCGGCA | 1.11 ± 0.098
130 | TTGGGACAGC | 1.003 ± 0.0014
131 | GATCATCCTG | 1.008 ± 0.0065
132 | CTGAATATTC | 1.021 ± 0.0036
133 | GATGGTTGTG | 0.95 ± 0.037
134 | TGATTAAGAT | 0.994 ± 0.026
135 | GAATTTTCGC | 0.995 ± 0.029
136 | TGCTTGGCTA | 0.98 ± 0.033
137 | CCAGAAAGGA | 0.97 ± 0.029
138 | CGTGCGGGGT | 0.991 ± 0.028
139 | GTATTAGTGT | 1.006 ± 0.0073
140 | GCTGGTGCTT | 0.974 ± 0.022
141 | ATGGGGAGCG | 0.992 ± 0.031
142 | GATTTTATTG | 1.01 ± 0.017
143 | ATTTTAAGGC | 1.002 ± 0.0054
144 | AGCAATGGGG | 1.58 ± 0.051
145 | ACATTAGTAG | 1.02 ± 0.033
146 | TTGCTTAAAA | 0.9852 ± 0.0095
147 | TTGTTATCGG | 1.04 ± 0.04
148 | TTATATGTAG | 0.993 ± 0.024
149 | CGCGGTGTCC | 1.02 ± 0.011
150 | CGATTAACTC | 1.03 ± 0.012

Row | Sequence | switch fluorescence ratio
151 | GATCCAATGT | 0.993 ± 0.019
152 | GCGTTAGGCG | 1.01 ± 0.044
153 | CAGCAGGGGG | 1.07 ± 0.068
154 | GGTATTCGAG | 1.02 ± 0.0013
155 | AAAGCAATTG | 1.077 ± 0.0065
156 | CATTTTGTGC | 0.988 ± 0.052
157 | AAGGAGGGAG | 0.992 ± 0.026
158 | CAAATGGGTC | 1.06 ± 0.046
159 | GCGCTTGGGG | 0.982 ± 0.011
160 | GGGGGCGCTG | 1.02 ± 0.028
161 | TTTCAGGGTC | 1.15 ± 0.19
162 | TTAATGCTAA | 0.99 ± 0.036
163 | CCAAAGGGGT | 1.06 ± 0.046
164 | ACATCCAACG | 1.12 ± 0.028
165 | AATCGCTGGG | 0.988 ± 0.022
166 | CAAACGCCCG | 0.9968 ± 0.0073
167 | TTACCTTAGT | 1.06 ± 0.034
168 | AGAGGATGTG | 1.01 ± 0.033
169 | TTTTAAAGTA | 1.01 ± 0.031
170 | GGGCAGACGT | 0.971 ± 0.063
171 | TGTGGTTAGC | 1.01 ± 0.064
172 | TAGGGACTCT | 0.995 ± 0.014
173 | ACCTGGGTAT | 1.01 ± 0.049
174 | CTTAGTGGCG | 0.9757 ± 0.0038
175 | CCTGGGGATC | 1.15 ± 0.098

Row | Sequence | switch fluorescence ratio
176 | TTCTACGGGC | 1.11 ± 0.025
177 | GCGGGGGAG | 1.01 ± 0.059
178 | TCTATTATTG | 0.98 ± 0.011
179 | ATACCGAGGA | 1.04 ± 0.051
180 | TGGGGGACGC | 1.08 ± 0.045
181 | AATGGGATAC | 1.16 ± 0.027
182 | TAATTTTGTT | 1.02 ± 0.019
183 | TAGTAATGGT | 1.032 ± 0.0084
184 | ACGGAGGGAT | 1.32 ± 0.032
185 | CCCATCCCCG | 1.2 ± 0.084
186 | TGGATATTTG | 0.983 ± 0.065
187 | TTACTTTGCT | 1.003 ± 0.0061
188 | AATAACCAGT | 1.02 ± 0.016
189 | CAGCGGGATT | 0.995 ± 0.036
190 | GGGTCGCGCA | 1.02 ± 0.029
191 | GAAGGCCATG | 1.016 ± 0.0075
192 | CCCGGGTAAG | 1.03 ± 0.024
193 | GCACGGGGAA | 1.02 ± 0.028
194 | GGGTAAGGCA | 0.986 ± 0.071
195 | AGGGTAATGG | 1.03 ± 0.021
196 | TCGAACTGCT | 1.02 ± 0.02
197 | TTATGGGATT | 0.993 ± 0.019
198 | CCGGGTATCC | 1.19 ± 0.18
199 | TGATTCGGGT | 0.984 ± 0.029
200 | GGGTATAGGT | 0.999 ± 0.016
